Reference: article PMC3788124, “Crystal Structure of the Human Short Coiled Coil Protein and Insights into SCOC-FEZ1 Complex Formation” (PLoS ONE, 2013)

B1: C-terminal Strep-tagged SCOC(78-159), wild type (domain or fragment)
chain: not shown
notes: human short coiled coil protein (SCOC), SwissProt entry Q9UIL1 isoform 1, residues 78-159; underlined stretch of the printed construct; linker between SCOC and the Strep-tag in the printed construct; Dimer by SEC-MALLS and native MS; also called short coiled coil protein; Strep-SCOC(78-159); source: E. coli BL21 (DE3), purified (StrepTrap, Superdex 75); also co-expressed with FEZ1(227-290) in E. …
B2: Strep-tagged SCOC(78-159) N125L/N132V (domain or fragment)
chain: not shown
notes: human SCOC, SwissProt entry Q9UIL1 isoform 1, residues 78-159, with N125L and N132V; linker between SCOC and the Strep-tag, as in the wild-type construct; Tetramer by SEC-MALLS and native MS; also called tetrameric core mutant; double core mutant N125L/N132V; source: E. coli BL21 (DE3), purified (StrepTrap, Superdex 75); also co-expressed with FEZ1(227-290) in E. coli
B3: Strep-tagged SCOC(78-159) E93V/K97L (domain or fragment, human)
chain: MAMMNADMDAVDAENQVVLEELTRLINQVLELQHTLEDLSARVDAVKEENLKLKSENQVLGQYIENLMSASSVFQTTDTKSKRKLVPRGS
notes: human SCOC, SwissProt entry Q9UIL1 isoform 1, residues 78-159, with E93V and K97L; linker between SCOC and the Strep-tag, as in the wild-type construct; Trimer by SEC-MALLS and native MS; also called trimeric SCOC mutant; double core mutant E93V/K97L; source: E. coli BL21 (DE3), purified (StrepTrap, Superdex 75); also co-expressed with FEZ1(227-290) in E. coli
B4: Strep-tagged SCOC(78-159) R99E (domain or fragment)
chain: not shown
notes: human SCOC, SwissProt entry Q9UIL1 isoform 1, residues 78-159, with R99E; linker between SCOC and the Strep-tag, as in the wild-type construct; also called R99E surface mutant; source: E. coli BL21 (DE3), purified (StrepTrap, Superdex 75); also co-expressed with FEZ1(227-290) in E. coli
B5: Strep-tagged SCOC(78-159) R117E (domain or fragment)
chain: not shown
notes: human SCOC, SwissProt entry Q9UIL1 isoform 1, residues 78-159, with R117E; linker between SCOC and the Strep-tag, as in the wild-type construct; also called R117E surface mutant; source: E. coli BL21 (DE3), purified (StrepTrap, Superdex 75); also co-expressed with FEZ1(227-290) in E. coli
B6: Selenomethionine-labelled Strep-tagged L105M SCOC(78-159) (domain or fragment)
chain: not shown
modifications: selenomethionine-labelled
notes: human SCOC, SwissProt entry Q9UIL1 isoform 1, residues 78-159, with L105M; linker between SCOC and the Strep-tag, as in the wild-type construct; Crystallised by in situ proteolysis with subtilisin (1:2000 w/w), so the chain in the crystal may be shorter; the final model comprises residues 86-147 and the Strep-tag is not visible in the electron density; also called L105M SCOC mutant; SCOC_(78-159) …

Target: the molecule itself
Assay: SEC-MALLS; SCOC constructs alone; 500 µL of 1.5 mg/ml on Superdex 200 10/300 GL; three measurements for each protein

Row | Protein | stoichiometry N
1 | B1 | 2
2 | B2 | 4
3 | B3 | 3
4 | B4 | 2
5 | B5 | 2

Target: the molecule itself
Assay: crystal structure; selenomethionine-labelled L105M SCOC(78-159), 3 mg/ml, with subtilisin 1:2000 (w/w) for in situ proteolysis; hanging drops, 20 °C, 100 mM sodium acetate pH 4.6, 0.7 M 1,6-hexanediol, 10 mM CoCl2

Row | Protein | binding result
6 | B6 | binds
